We go through 6 molecules from patent publication US9206432B2, “Sulfonylurea-responsive repressor proteins” (priority 2008, dated 2015).

This assay relates to lacZ under control of the tetA promoter (PtetA) in E. coli KM3. The assay is classed as cell-based. The settings on record: for 0.2 ppm 48 hr (colony color intensity, induction by chlorsulfuron): 0.2 ppm chlorsulfuron as inducer, 48 hr at 30° C.; for 0.2 ppm 48 hr (colony color intensity, induction by chlorsulfuron) / Control 84 hr (background activity, no inducer): M9 assay plates, ImageJ colony color intensity; for Control 84 hr (background activity, no inducer): 84 hr at 30° C.

Changes are numbered by the printed parent chain.

B1: L6-4D10 (protein)
chain: MGSRLDKSKVINSALELLNEVGIEGLTTRKLAQKLGVEQPTLYWHVKNKRALLDALAIEMMDRHQTHYCPLEGESWQDFLRNNAKSMRCALLSHRDGAKVCLGTRWTEKQYESAENMLAFLCQQGFSLENALYAVSAVRVFTLGCVLFDQESQVAKEERETPTTASMPPLLRQAWELKDHQGAEPAFLFGLELIICGLEKQLKCESGS
modifications: Sulfonylurea responsive repressor L6-4D10
For B1, the “0.2 ppm 48 hr/Control 84 hr” value was 3.7; the “0.2 ppm 48 hr (colony color intensity, induction by chlorsulfuron)” value was found to be 18.4; the “Control 84 hr (background activity, no inducer)” value is on record as 5.0.

B2: L6-6F07 (protein)
chain: B1 chain with Q65A, Y68L, N83T, K109Q, V135M
modifications: Sulfonylurea responsive repressor L6-6F07
Take B2: the “0.2 ppm 48 hr/Control 84 hr” value is 2.3; the “0.2 ppm 48 hr (colony color intensity, induction by chlorsulfuron)” value turned out to be 11.6; the “Control 84 hr (background activity, no inducer)” value turned out to be 5.1.

B3: L6-5G06 (protein)
chain: B1 chain with K109Q, S113T, M117Q, S152L, A174G
modifications: Sulfonylurea responsive repressor L6-5G06
Consider B3, for which the “0.2 ppm 48 hr/Control 84 hr” value was 4.9; the “0.2 ppm 48 hr (colony color intensity, induction by chlorsulfuron)” value was 34.4; the “Control 84 hr (background activity, no inducer)” value worked out at 7.0.

B4: L6-5F05 (protein)
chain: B1 chain with Q65A, Y68I, K109Q, S113A, M117Q, S152L
modifications: Sulfonylurea responsive repressor L6-5F05
Regarding B4, the “0.2 ppm 48 hr/Control 84 hr” value was determined as 4.1; the “0.2 ppm 48 hr (colony color intensity, induction by chlorsulfuron)” value was found to be 22.0; the “Control 84 hr (background activity, no inducer)” value turned out to be 5.4.

B5: L6-5H12 (protein)
chain: B1 chain with Q65A, S113T, M117Q, V135M, S152L, L171V
modifications: Sulfonylurea responsive repressor L6-5H12
With B5, the “0.2 ppm 48 hr/Control 84 hr” value is recorded as 4.2; the “0.2 ppm 48 hr (colony color intensity, induction by chlorsulfuron)” value amounted to 23.7; the “Control 84 hr (background activity, no inducer)” value came out at 5.7.

B6: L6-5H06 (protein)
chain: B1 chain with Y68I, S113T, S152L, L171V
modifications: Sulfonylurea responsive repressor L6-5H06
B6: the “0.2 ppm 48 hr/Control 84 hr” value turned out to be 2.7; the “0.2 ppm 48 hr (colony color intensity, induction by chlorsulfuron)” value is listed as 13.7; the “Control 84 hr (background activity, no inducer)” value turned out to be 5.1.
